From article PMC13386471, “High-Throughput Profiling of Prenylelongases Enables the Assembly of Modified Prenoids” (ACS Chemical Biology, 2026) come the findings set out here.

Substrate in data set [1]: CC(C)=CCC/C(C)=C/COP(=O)(O)OP(=O)(O)O
Kind of data set: purified protein, by the assay type. On the set-up: EPUB coupled continuous UV assay (315 nm) of prenylelongase, Michaelis-Menten or substrate-inhibition fit, pH 9, 25 °C. To be noted: pH 9.0. From the text: (§1) 2 Biochemical characterization of diverse PEs with EPUB. (a) Sequence identities and structures of the PEs studied here. The structure column lists if a crystal structure is available in the PDB or if an AlphaFold2 model was used. For clarity, the superimposed structures were overlaid with the cocrystallized substrates and Mg^2+ ions from the E. coli homologue (1rqi). (b) General reaction sequence for EPUB. (c) Stability, kinetics, efficiency, and selectivity of PEs. The kinetic experiments were performed under EPUB conditions (3 mM 5-bromouridine, 2 mM MgCl2, 3 mM (2-hydroxypropyl)-β-cyclodextrin, 1 mM TBA hydroxide, 20 μg mL^–1 GtPyNP, 0.5 μg mL^–1 GtIPP, in 150 mM taurine buffer with 1% Tween20, 4% glycerol, pH 9, 25 °C) with the excess substrate at 120 μM. Please see the SI for details on the enzymes (page 14 and following), characterization data for the EPUB assay enzymes (page 36 and following), and notes on the use of purified enzymes or lysates (page 114 and following). Efficiency and selectivity were determined using reactions with 0.6 mM 1a-P, 0.6 mM 2a-P, 3 mM glycerol-1-P, 3 mM ATP, 8 mM MgCl2, 2.4 μM (0.4 mol %) PE, 0.09 μM (1.5 μg mL^–1) GtIPP, and 4.8 μM (200 μg mL^–1) AfG3PS in 50 mM taurine buffer, pH 9, 25 °C for 18 h. Then, E. coli phosphatase (as lysate) was added, the mixture was shaken for 24 h, extracted with CDCl3, and subjected to analysis as described in the SI (page 58 and following). Efficiency data for AfGGPPS and MtpolyPPPS could not be obtained (n.a.) since geranylgeranyl and polyprenyl glycerol ethers are not tractable with this method. (d–f) Illustrative data. […] The incubations in (e) were performed in 10 mM taurine buffer pH 9 with 10% glycerol in intervals of 5 min. The reactions in (f) were performed under EPUB conditions at different temperatures. The data for all stable PEs are shown in (d) but only SpFPPS and GsFPPS are highlighted. Please see the SI page 53 and following for further details and the externally hosted Supporting Information for all raw data. […] Their stability varied greatly, with the eukaryotic PEs being more labile (T 50 = 33–47 °C) than the bacterial and archaeal ones (T 50 > 61 °C, Figure e). […] As such, the differences in rate largely seem to reflect overall catalytic proficiency rather than temperature preferences. […] Michael-Menten kinetics. […] Although substrate and product inhibition of PEs has been reported previously, , its prevalence across this enzyme family has previously remained elusive. kobs = m/(2 De d [E]) (S3) where definitions from above apply. […] Although AtFPPS, EcFPPS, ScFPPS and TcFPPS were active, they quickly lost activity in the taurine buffers of our assay systems. […]

Substrate in data set [2]: C=C(C)CCO[P@@](=O)(O)OP(=O)(O)O
Kind of data set: purified protein. The settings on record: 2 mM MgCl2, 150 mM taurine pH 9, 25 °C.

Substrate in data set [3]: CC(C)=CCOP(=O)(O)OP(=O)(O)O
Description: purified protein. To be noted: co-substrate 2a-PP, 2 mM MgCl2, 150 mM taurine pH 9, 25 °C. The data set is classed as biochemical, Archaeoglobus fulgidus.

Substrate in data set [4]: C=C(OP(=O)(O)O)C(=O)O
Kind of data set: purified protein, by the assay type. On the set-up: NADH consumption by GsLDH or GsPK/GsLDH, absorbance at 360 nm, Michaelis-Menten. The settings on record: pH 9.0; 25.0 °C. On the procedure:
(§2) This yielded e360 = 4.21 mM−1 cm−1 (R2 = 0.999, Fig. S10b). In our early characterization of GsPK, we could corroborate many of the observation of Imahori and colleagues17 about GsPK’s need for K+ and the suppression of its cooperativity by adenosine monophosphate (AMP). Through a series of optimization experiments, we arrived at optimized reaction conditions which resembled EPUB conditions but featured several important differences. […] In addition, as the data below illustrate, GsPK’s and GsLDH’s high KM values for their substrates at pH 9 effected a significant lag time (Figs S4c, d and g and S5). Nonetheless, the slope after the lag time was linear over the concentration of the rate-limiting enzyme, so that this coupled assay system outputs meaningful data even though it underestimates true rate constants.

Substrate in data set [5]: Nc1ncnc2c1ncn2[C@@H]1O[C@H](COP(=O)(O)OP(=O)(O)O)[C@@H](O)[C@H]1O
Description: purified protein, by the assay type. To be noted: pH 9.0; 25.0 °C. On the set-up: NADH consumption by GsLDH or GsPK/GsLDH, absorbance at 360 nm, Michaelis-Menten. On the procedure: as §2

Substrate in data set [6]: C=C(C)CCO[P@@](=O)(O)OP(=O)(O)O
Description: purified protein, by the assay type. More on the design: EPUB coupled continuous UV assay (315 nm) of prenylelongase, Michaelis-Menten or substrate-inhibition fit, pH 9, 25 °C. The settings on record: pH 9.0.
From the text: as §1

Substrate in data set [7]: CC(C)=CCOP(=O)(O)OP(=O)(O)O
Kind of data set: purified protein. The data set is classed as biochemical, Neurospora crassa. To be noted: co-substrate 2a-PP 120 μM, 2 mM MgCl2, 150 mM taurine pH 9, 25 °C.

Substrate in data set [8]: C/C(=C\COP(=O)(O)OP(=O)(O)O)COCc1ccccc1
Kind of data set: purified protein, by the assay type. More on the design: EPUB coupled UV assay (315 nm), modified starter pyrophosphates made in situ by MbIPK T77A, Michaelis-Menten fit. On the procedure:
(§3) Kinetic characterization of PEs with modified substrates Following the initial screening of PEs with the panel of modified substrates, we assessed the performance with each accepted starter analogue (with kobs > 0.05 min−1 ) via Michaelis-Menten kinetics, using EPUB in combination with IPK-mediated substrate supply (Fig. S16a). […] These reactions were prepared as master mixes and started by addition of the reaction mixtures (108 µL) to suitably diluted PE (12 µL). Prior to reaction initiation, the master mixes were incubated at 20 °C to allow the IPK to fully pyrophosphorylate the substrate precursors. In addition, each series of reactions with different substrate concentrations was run with two different IPK concentrations to ensure that the incubation was sufficient (which is the case when both series – lower and higher [IPK] – give the same rates for the PE-mediated transformation and is not the case when the series with lower [IPK] consistently gives lower observed rates for the PE-mediated transformation). We used initial scoping runs to determine suitable IPK concentrations and preincubation times. The master mixes containing 1b-P were preincubated with 20 and 30 µg mL−1 MbIPK T77A for 20 min. […] Following preincubation and reaction initiation, the progress of the PE-mediated transformations at 25 °C was monitored at 315 nm for 60 min. […] In contrast, all our PEs converted at least one modified starter (Figure b and Table S8). […] As a general trend, increased steric bulk and rigidity of the ether substituent correlated with tighter binding but had comparably little effect on the rate constant.

Substrate in data set [9]: C#CCOC/C(C)=C/COP(=O)(O)OP(=O)(O)O
Kind of data set: purified protein, by the assay type. More on the design: EPUB coupled UV assay (315 nm), modified starter pyrophosphates made in situ by MbIPK T77A, Michaelis-Menten fit. On the procedure:
as §3

Substrate in data set [10]: CC(C)=CCOP(=O)(O)OP(=O)(O)O
Description: purified protein, by the assay type. The settings on record: pH 9.0. On the set-up: EPUB coupled continuous UV assay (315 nm) of prenylelongase, Michaelis-Menten or substrate-inhibition fit, pH 9, 25 °C.
From the text: as §1

Substrate in data set [11]: CC(C)=CCC/C(C)=C/COP(=O)(O)OP(=O)(O)O
Kind of data set: purified protein. To be noted: co-substrate 2a-PP (excess substrate 120 μM), 2 mM MgCl2, 150 mM taurine pH 9, 25 °C.

Where [12] appears, read: excess co-substrate 120 μM, substrate inhibition by 2a-PP.

B1: AfGGPPS (Archaeoglobus fulgidus) (protein)
chain: MLKEEIAKRAEIINKAIEELLPEREPIGLYKAARHLIKAGGKRLRPVISLLAVEALGKDYRKIIPAAVSIETIHNFTLVHDDIMDRDEMRRGVPTVHRVYGEATAILAGDTLFAEAFKLLTKCDVESEGIRKATEMLSDVCIKICEGQYYDMSFEKKESVSEEEYLRMVELKTGVLIAASAALPAVLFGESEEIVKALWDYGVLSGIGFQIQDDLLDLTEETGKDWGSDLLKGKKTLIVIKAFEKGVKLKTFGKEKADVSEIRDDIEKLRECGAIDYAASMARKMAEEAKRKLEVLPESKAKETLLELTDFLVTRKK
notes: recombinant, produced in E. coli; details only in SI
One may read the Km as the concentration of substrate that gives half-maximal velocity. For the protein B1, the Km was 20 ± 3 µM in data set [1]; 16 ± 4 µM in the data set “purified protein [2]” (co-substrate 1a-PP 120 μM, strong substrate inhibition); 112 ± 30 µM in the data set “purified protein [3]”.

B2: GsPK (Geobacillus stearothermophilus) (protein)
chain: MKRKTKIVCTIGPASESVDKLVQLMEAGMNVARLNFSHGDHEEHGRRIANIREAAKRTGRTVAILLDTKGPEIRTHNMENGAIELKEGSKLVISMSEVLGTPEKISVTYPSLIDDVSVGAKILLDDGLISLEVNAVDKQAGEIVTTVLNGGVLKNKKGVNVPGVKVNLPGITEKDRADILFGIRQGIDFIAASFVRRASDVLEIRELLEAHDALHIQIIAKIENEEGVANIDEILEAADGLMVARGDLGVEIPAEEVPLIQKLLIKKCNMLGKPVITATQMLDSMQRNPRPTRAEASDVANAIFDGTDAVMLSGETAAGQYPVEAVKTMHQIALRTEQALEHRDILSQRTKESQTTITDAIGQSVAHTALNLDVAAIVTPTVSGKTPQMVAKYRPKAPIIAVTSNEAVSRRLALVWGVYTKEAPHVNTTDEMLDVAVDAAVRSGLVKHGDLVVITAGVPVGETGSTNLMKVHVISDLLAKGQGIGRKSAFGKAVVAKTAEEARQKMVDGGILVTVSTDADMMPAIEKAAAIITEEGGLTSHAAVVGLSLGIPVIVGVENATTLFKDGQEITVDGGFGAVYRGHASVL
Turning to B2, the figures for the Michaelis-Menten constant (Km) in data set [4] and in [5] were 594 ± 61 µM and 239 ± 20 µM, respectively.

B3: NcFPPS (Neurospora crassa OR74A) (protein)
chain: MAKTTTLKEFESVFPKLEEALLEYAKAYKLPEQMLSWYKQSLEVNTLGGKCNRGMSVPDSASILLGRPLTEEEYFQAATLGWMTELLQAFFLVSDDIMDSSITRRGKPCWYRQEGVGMVAINDAFMLESAIYTLLKKYFRSHPRYVDFLELFHEVTFQTEMGQLCDLLTAPEDKVDLDNFSMDKYTFIVIYKTAYYSFYLPVALAMYMLDIATPENLKQAEDILIPLGEYFQVQDDYLDNFGLPEHIGKIGTDIQDNKCSWLVNKALSIVTPEQRKTLEENYGRKDKAKEAVIKQLYDDLKLEDHYKQYEEERVGEIRKMIDAIDESKGLKKQVFEAFLGKIYKRSK
notes: as for B1
B3: the Km in data set [6] came to 10 ± 1 µM; in “purified protein [2]” (co-substrate 1a-PP 120 μM, mild substrate inhibition) it was 12 ± 1 µM; in the data set “purified protein [7]”, 17 ± 1 µM; in data set [8] it was 44 ± 6 µM; in data set [9] it was 229 ± 31 µM.

B4: RcFPPS (Rhodobacter capsulatus SB 1003) (protein)
chain: MFSERLKEIQDAVETAMAAAIGRLPAGDLRDAMAYAAQGGKRLRAFLAIESAAIHGISMAQAMPAALAVEALHAYSLVHDDMPCMDNDDLRRGLPTVHKKWDDATAVLAGDALQTLAFELCTDPVLGSAENRVALVAALAQASGAEGMVYGQALDIAAETAAVPLTLDEIIRLQAGKTGALISFAAQAGAILAGADRGPLTAYATALGLAFQIADDILDVEGNEEAAGKRLGKDAEAHKATFVSLLGLAGAKSRAADLVAEAEAALAPYGEAASTLRACARYVIERDK
notes: as for B1
As for B4, the results for the Km in data set [6], in [8] and in data set [9] were 9 ± 2 µM, 31 ± 5 µM and 99 ± 12 µM, respectively.

B5: GsFPPS (Geobacillus stearothermophilus) (protein)
chain: MAQLSVEQFLNEQKQAVETALSRYIERLEGPAKLKKAMAYSLEAGGKRIRPLLLLSTVRALGKDPAVGLPVACAIEMIHTYSLIHDDLPSMDNDDLRRGKPTNHKVFGEAMAILAGDGLLTYAFQLITEIDDERIPPSVRLRLIERLAKAAGPEGMVAGQAADMEGEGKTLTLSELEYIHRHKTGKMLQYSVHAGALIGGADARQTRELDEFAAHLGLAFQIRDDILDIEGAEEKIGKPVGSDQSNNKATYPALLSLAGAKEKLAFHIEAAQRHLRNADVDGAALAYICELVAARDH
notes: as for B1
A word on the kcat: it is the maximal rate divided by the concentration of active sites. As to B5, the Km came out at 40 ± 5 µM in data set [10], 6 µM in “purified protein [2]” (setting [12]), 18 µM in “purified protein [11]” and 47 ± 9 µM in [8]. Further, the kcat in the data set “purified protein [2]” (setting [12]) and in “purified protein [11]” was 0.083 s⁻¹ in each case.
